# According to US9329180B2, “Preparation of anti-PEG antibody expressing cell and application thereof” (KAOHSIUNG MEDICAL UNIVERSITY, priority 2010, dated 2016):
# B1: 15-2 antibody: anti-methoxyl-PEG IgG2b antibody; VH SEQ ID NO: 9, VL SEQ ID NO: 10 (antibody, V domains shown)
# VH: EVKLEESGGGLVQPGGSMKLSCVASGFTFSNYWMNWVRQSPEKGLEWVTEIRSKSNNYATHYAESVKGRFTISRDDSKGSVYLQMNNLRAEDTGIYYCSNRYYWGQGTLVTVSA
# VL: DIVMTQSHKFMSTSVRDRVTITCKASQDVNTSVAWYQQKPGQSPKLVIYWASTRHTGVPDRFTGSGSGTDFTLTISNVQSEDLADYFCLQYINYPYTFGGGTKLEIKR
# modifications: VH domain of 15-2 antibody; VL domain of 15-2 antibody
# B2: AGP3 antibody: monoclonal IgM antibody specific to the PEG backbone; VH SEQ ID NO: 1, VL SEQ ID NO: 2 (antibody, V domains shown)
# VH: EVQLVESGGGLVKPGGSLKLSCAASGFTFSDYYMYWVRQTPEKRLEWVATISDDGTYTYYPHSVKGRFTISRDSAKNNLYLQLSSLKSEDTAMYYCARNDARGDYWGQGTSVTVSS
# VL: DIVLTQAAFSNPVTLGTSASISCRSSKSLLHSNGITYLYWYLQKPGQSPQLLIYQMSNLASGVPDRFSSSGSGTDFTLRISRVEAEDVGVYYCAQNLELFTFGSGTKLEIKR
# modifications: VH domain of AGP3 antibody; VL domain of AGP3 antibody
# Tests used:
# [1] = 3T3/15-2 cell-based or 15-2 antibody-based sandwich ELISA (AGP4-biotin detection); format: binding; settings: cell-based versus antibody-based capture
# Method: Anti-methoxyl-PEG cells were used as a platform to establish a sandwich ELISA to quantify all kinds of free methoxyl-PEG molecules. 3T3/15-2 cells were seeded into a 96 wells plate. After that, the methoxyl-PEG was added as an analyte, and then a biotinylated anti-PEG antibody (AGP4-Biotin) was used as a detecting antibody. Finally, streptavidin-HRP was added into the 96 wells plate. After adequate washing, the concentration of methoxyl-PEG was known by observing the color intensity of the matrix coated on the 96 wells plate. With existence of serum, this method can quantify all kinds of free methoxyl-PEG molecules (CH3O-PEG2K and CH3O-PEG5K), and the sensitivity was better than using 3T3/AGP3 platform. Therefore, the sandwich ELISA method using 3T3/15-2 platform can sensitively quantify all kinds of methoxyl-PEG molecules.
# To test whether 3T3/15-2 cell-based or 15-2 antibody-based sandwich ELISA could be used to quantify CH3O-PEG molecules, CH3O-PEG (1K, 2K, 5K, and 20K Da) or Lipo-Dox (liposomal doxorubicin conjugated with CH3O-PEG2K) was added to 3T3/15-2 cell or 15-2 antibody coated 96 well/plates, respectively. Captured mPEG molecules were then quantified by sequential addition of biotinylated AGP4 antibody (AGP4-biotin), streptavidin-conjugated horseradish peroxidase (streptavidin-HRP) and ABTS substrate. […] The sensitivity depended on the length of the PEG chain. […]
# [2] = test system: Lipo-Dox (liposomal doxorubicin conjugated with CH3O-PEG2K); experiment: as above; format: binding; settings: cell-based versus antibody-based capture
# Method: To test whether 3T3/15-2 cell-based or 15-2 antibody-based sandwich ELISA could be used to quantify CH3O-PEG molecules, CH3O-PEG (1K, 2K, 5K, and 20K Da) or Lipo-Dox (liposomal doxorubicin conjugated with CH3O-PEG2K) was added to 3T3/15-2 cell or 15-2 antibody coated 96 well/plates, respectively. Captured mPEG molecules were then quantified by sequential addition of biotinylated AGP4 antibody (AGP4-biotin), streptavidin-conjugated horseradish peroxidase (streptavidin-HRP) and ABTS substrate. […] The sensitivity depended on the length of the PEG chain. CH3O-PEG5K and CH3O-PEG2K could be effectively detected at concentrations as low as 1 nM, respectively.
# [3] = Direct binding of PEG5K-biotin, AGP3 antibody-based and 3T3/AGP3 cell-based ELISA; settings: streptavidin-HRP and ABTS, 405 nm
# Method: (§1) To further investigate the potential mechanism that dictates the differential ability in detecting PEG by the cell surface-expressed anti-PEG antibody and coated AGP3 antibody, the present invention compared direct binding of PEG5K-biotin (FIG. 8A) or PEG5K-^131I (FIGS. 8B and 8C) to AGP3 antibody and 3T3/AGP3 cells precoated in 96-well plates.
# The 3T3/AGP3 and 3T3/DNS cells (2×10^5 cells/well) were seeded overnight in 96-well plates in culture medium. After extensive washing, captures were fixed by 1% paraformaldehy for 3 min. Plates were blocked with 5% skim milk in PBS for 2 hours at 37° C. PEG5K-biotin was serially diluted and added to the cells at room temperature for 1 h. After washing, streptavidin-HRP and ABTS were sequentially added to the plates to quantify the captured PEG5K-biotin. Color development was measured at 405 nm on a microplate reader. Using this method, the detection limit of PEG5K-biotin in the 3T3/AGP3 cell-based ELISA was 15.6 ng/mL (FIG. 8A).
# [4] = Direct binding of PEG5K-131I to AGP3 antibody-coated and 3T3/AGP3 cell-coated plates (γ counter)
# Method: as §1
# The 3T3/AGP3 and 3T3/DNS cells (2×10^5 cells/well) were seeded overnight in 96-well plates in culture medium. After extensive washing, captures were fixed by 1% paraformaldehy for 3 min. Plates were blocked with 5% skim milk in PBS for 2 hours at 37° C. PEG5K-^131I was serially diluted and added to the cells at room temperature for 1 h. After washing, 1N NaOH was added to elute the bound PEG5K-^131I. The radioactivity of these samples was counted on a γ counter.
molecule,measurement,setting,value
B1,detection of CH3O-PEG molecules above molecular weight of 2000 Da,[1],Only 3T3/15-2 cell-based sandwich ELISA could detect
same,"detection of Lipo-Dox, apparent avidity",[2],"similar, apparent avidities"
B2,detection limit of PEG5K-biotin,[3],failed to detect
same,signal intensity per well,[4]; 0.74 μCi/mL PEG5K-131I,114
same,signal intensity per well,[4]; 2.22 μCi/mL PEG5K-131I,210
same,signal intensity per well,[4]; 6.67 μCi/mL PEG5K-131I,245
same,signal intensity per well,[4]; 20 μCi/mL PEG5K-131I,293
